Consider one molecule from publication PMC10821591, “Toxoplasma gondii mitochondrial association factor 1b interactome reveals novel binding partners including Ral GTPase accelerating protein α1” (The Journal of Biological Chemistry, 2023).

The target in the assay is T1, T. gondii MAF1b (residues 173-443), co-expressed with RalGAPα1(GAP) in insect cells (Toxoplasma gondii, UniProt A0A140H546 173-443).
T1 construct: MAF1b of Toxoplasma gondii, structured C-terminal domain, residues 173-443; The results speak of nickel purification of MAF1b, the methods of streptactin purification and TEV cleavage of RalGAP (±MAF1b)
T1 sequence: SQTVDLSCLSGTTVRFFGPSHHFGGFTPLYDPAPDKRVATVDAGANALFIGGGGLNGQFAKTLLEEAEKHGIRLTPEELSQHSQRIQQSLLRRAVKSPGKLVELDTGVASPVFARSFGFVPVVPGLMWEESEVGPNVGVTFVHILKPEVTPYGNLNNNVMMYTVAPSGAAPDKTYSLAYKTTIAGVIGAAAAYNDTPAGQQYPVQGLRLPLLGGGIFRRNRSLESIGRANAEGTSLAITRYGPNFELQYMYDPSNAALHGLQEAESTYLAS
As to the kind of experiment: SEC; RalGAPα1(GAP) co-expressed with MAF1b_WT in T. ni cells, co-purified by affinity chromatography, TEV cleavage, then Superdex 75 16/600 in 20 mM HEPES pH 7.5, 150 mM NaCl, 1 mM DTT; fractions on SDS-PAGE. The conditions noted are these: both partners purified.

B1: GAP domain of human Ral GTPase Accelerating Protein α1 (residues 1807-1988) (domain or fragment)
chain: not shown
notes: Human RalGAPα1, putative GAP domain, amino acids T1807-P1988 of NP_055805.1; also called RalGAPα1(GAP); RalGAP; not shown: twin-strep-II, N-terminal, cleaved
Consider B1, for which the binding result is reported as “binds”.
